Tests used:
[1] = target: T1, PODXL2, positions 1 to 360 (human, UniProt O00592 23-392); test: flow cytometry on Ba/F3 cells expressing the truncated PODXL2
T1 construct: One of the 14 C-terminal truncations; Expressed on Ba/F3 cells; also called R360
T1 sequence: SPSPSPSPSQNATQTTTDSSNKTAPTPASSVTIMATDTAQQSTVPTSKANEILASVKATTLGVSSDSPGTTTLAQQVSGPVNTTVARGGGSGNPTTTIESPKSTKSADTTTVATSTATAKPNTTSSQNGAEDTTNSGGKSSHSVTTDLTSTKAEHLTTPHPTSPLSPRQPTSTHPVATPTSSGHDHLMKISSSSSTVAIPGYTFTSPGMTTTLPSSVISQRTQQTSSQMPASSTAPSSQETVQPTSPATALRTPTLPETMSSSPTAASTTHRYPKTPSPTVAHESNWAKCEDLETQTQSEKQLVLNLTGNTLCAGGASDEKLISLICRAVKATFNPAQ
Method: (§1) To each sample of the cell suspension, 50 μl of the hybridoma culture supernatant or 2-μg/ml of the purified antibody (hereinafter, referred to as an “antibody solution”) was added, and the antibody was reacted with the cells. As an isotype control of the antibody solution, a wash buffer containing 2 μg/ml of each of mouse IgG1 (BioLegend, 400412), mouse IgG2a (BioLegend, 400224), and mouse IgG2b (BioLegend, 400324) was used. The hybridoma culture supernatant was reacted with the target cells at room temperature for 30 minutes, followed by centrifugation at 700×g for 2 minutes. Then, a culture supernatant was removed. Further, 100 μl of a wash buffer was added, followed by centrifugation at 700×g for 2 minutes again. A supernatant was removed. Then, the cells were washed.
(§2) Next, to the cell pellets after the washing, 50 μl of Goat anti-mouse IgG, F(ab′) 2-PE (PE=phycoerythrin, Beckman Coulter, IM0855) diluted 200-fold with a wash buffer was added as a secondary antibody for detection, and reacted in the dark at room temperature for 30 minutes. The reaction was followed by centrifugation at 700×g for 2 minutes. A supernatant was removed. Further, 100 μl of a wash buffer was added, followed by centrifugation at 700×g for 2 minutes again. A supernatant was removed. Then, the cells were washed. Thereafter, the cells were suspended in an appropriate amount of a wash buffer. The reactivity between the antibody and the cells was analyzed by a flow cytometer (Beckman Coulter, FC500 MPL).
(§3) Thereafter, by the same method as in Example 1 (4) (the virus packaging and thereafter), Ba/F3 cells containing the PODXL2 gene sequences of various chain lengths were prepared. Further, by the same method as in Example 4, the reactivity between the ACT36-27_{—}5D1 antibody and the Ba/F3 cells expressing the PODXL2 molecules of various chain lengths was analyzed by a flow cytometer (FIG. 10).

[2] = target: T2, PODXL2, positions 1 to 300 (human, UniProt O00592 23-332); test: as above
T2 construct: Shortest of the 14 C-terminal truncations; Expressed on Ba/F3 cells; also called R300
T2 sequence: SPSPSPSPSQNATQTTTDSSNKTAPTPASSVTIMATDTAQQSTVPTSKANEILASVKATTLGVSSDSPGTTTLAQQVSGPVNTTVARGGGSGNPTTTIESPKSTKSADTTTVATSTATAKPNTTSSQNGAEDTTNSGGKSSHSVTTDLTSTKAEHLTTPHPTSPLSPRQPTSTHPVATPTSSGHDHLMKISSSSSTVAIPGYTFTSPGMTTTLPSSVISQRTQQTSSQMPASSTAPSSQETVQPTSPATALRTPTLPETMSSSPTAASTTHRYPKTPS
Method: as §1, §2, §3

[3] = target: T3, PODXL2, positions 1 to 370 (human, UniProt O00592 23-402); test: as above
T3 construct: One of the 14 C-terminal truncations; Expressed on Ba/F3 cells; also called R370
T3 sequence: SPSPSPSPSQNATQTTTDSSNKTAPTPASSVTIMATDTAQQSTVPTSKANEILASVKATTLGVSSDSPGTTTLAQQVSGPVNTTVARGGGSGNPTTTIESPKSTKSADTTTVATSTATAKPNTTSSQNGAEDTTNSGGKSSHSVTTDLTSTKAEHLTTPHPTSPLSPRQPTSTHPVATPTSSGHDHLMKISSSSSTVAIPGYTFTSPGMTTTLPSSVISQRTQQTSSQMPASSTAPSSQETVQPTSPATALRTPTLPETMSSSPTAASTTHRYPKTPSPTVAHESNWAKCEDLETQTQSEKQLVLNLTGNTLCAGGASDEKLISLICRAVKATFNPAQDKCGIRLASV
Method: as §1, §2, §3

[4] = target: T4, human-derived PODXL2 protein (Homo sapiens podocalyxin-like (PODXL), transcript variant 2, NM-005397.3), full … (human, UniProt O00592 23-558); test: flow cytometry on Ba/F3 cells expressing PODXL2 against negative control Ba/F3 cells (FIG. 1)
T4 construct: 526 amino acids; also called full-length PODXL2 gene
T4 sequence: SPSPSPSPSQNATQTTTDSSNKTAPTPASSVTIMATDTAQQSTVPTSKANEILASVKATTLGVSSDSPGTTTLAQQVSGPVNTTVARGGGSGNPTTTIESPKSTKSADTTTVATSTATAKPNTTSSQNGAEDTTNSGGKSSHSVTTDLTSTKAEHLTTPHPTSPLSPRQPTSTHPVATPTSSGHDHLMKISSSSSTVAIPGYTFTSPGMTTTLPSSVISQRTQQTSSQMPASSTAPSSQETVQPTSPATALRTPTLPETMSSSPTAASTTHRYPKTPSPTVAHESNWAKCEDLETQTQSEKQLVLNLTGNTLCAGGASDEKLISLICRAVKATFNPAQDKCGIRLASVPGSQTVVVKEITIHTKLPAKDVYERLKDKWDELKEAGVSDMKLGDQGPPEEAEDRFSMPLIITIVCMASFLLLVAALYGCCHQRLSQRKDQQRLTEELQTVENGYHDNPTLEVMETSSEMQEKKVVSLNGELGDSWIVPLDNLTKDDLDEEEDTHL
Method: as §1
as §2, with “Then, the cells were washed. Thereafter, the cells were suspended in an appropriate amount of a wash buffer.” left out

B1: ACT36-27-5D1 antibody (antibody, V domains shown)
VH: EVQLQQSGPELVKPGASVKMSCKASGYTFTSYVMHWVKQKPGQGLEWIGYIHPYNDGIKYNEKFKGKATLTSDKSSSTAYMDLSSLTSEDSAVYYCARSWDWYFDVWAAGTTVTVSS
VL: QIVLTQSPAIMSASPGEKVSMTCSASSSVSYMHWYQQKSGTSPKRWIYDTSKLASGVPARFSGSGSGTSYSLTISSMEAEDAATYYCLQWSSNPPTFGGGTKLE
notes: also called anti-PODXL2 antibody ACT36-27-5D1; anti-ACT36-27-5D1 monoclonal antibody
binding result [1]: no binding
binding result [2]: no binding
binding result [3]: no binding
binding result [4]: binds

Reference: patent publication US20120107364A1 (ACTGEN, published 2012)
